Assay results taken from patent US20190040149A1 (Innovent, published 2019).
Where a chain is given by its changes, count along the chain named. Values belong to the binder of their own block, whether it stands above or below them.

Columns and labels:
murine PD-1 on CHO cells = target: T1, murine PD-1 on CHO cells (mouse, UniProt Q02242 25-288); test: flow cytometry on CHO cells with murine PD-1
T1 sequence: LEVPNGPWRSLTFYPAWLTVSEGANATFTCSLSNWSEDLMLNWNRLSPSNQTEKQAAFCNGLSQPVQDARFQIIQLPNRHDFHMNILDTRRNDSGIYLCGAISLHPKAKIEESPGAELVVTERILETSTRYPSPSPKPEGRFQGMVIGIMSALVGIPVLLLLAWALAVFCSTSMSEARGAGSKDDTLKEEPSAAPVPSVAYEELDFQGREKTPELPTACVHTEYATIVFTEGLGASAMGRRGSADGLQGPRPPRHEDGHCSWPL
Protocol: (§1) Cells are then washed 3×, and are incubated with a secondary antibody (PE-labelled, at final concentration of 5 μg/ml) in PBS 1% BSA for 30 min on ice (protected from light). Cells are washed 3× and analyzed via flow cytometry. Flow cytometry is performed on an Accuri C6 system (BD Biosciences) and MFIs are calculated on the C6 software. EC50 s are calculated on Graphpad software.

[1] = target: T2, human PD-1 (soluble antigen of the MSD assay, b-PD-1 monomer) (human, UniProt Q15116 25-170, limits assumed, biotinylated (b-PD-1), site not stated); test: MSD solution equilibrium titration, avid KD
T2 construct: The antigen format of the 'avid' measurement is not described
T2 sequence (Q15116 25-170 limits assumed): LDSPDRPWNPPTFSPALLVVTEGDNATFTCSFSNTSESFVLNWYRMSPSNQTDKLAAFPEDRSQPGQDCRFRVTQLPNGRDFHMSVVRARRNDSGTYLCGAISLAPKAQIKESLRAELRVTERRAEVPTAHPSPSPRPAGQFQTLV
Protocol: (§2) Equilibrium affinity measurements are performed as previously described (Estep, P., et al., MAbs, 2013. 5(2): p. 270-8). Solution equilibrium titrations (SET) are performed in PBS+0.1% IgG-Free BSA (PBSF) where antigen (b-PD-1 monomer) is held constant at 10-100 pM and is incubated with 3- to 5-fold serial dilutions of Fab or mAbs starting at 5-100 nM (experimental condition is sample dependent). Antibodies diluted at 20 nM in PBS are coated onto standard bind MSD-ECL plates overnight at 4° C. or at room temperature for 30 min. Plates are blocked with BSA for 30 min whilst shaking at 700 rpm. Plates are then washed 3× with wash buffer (PBSF+0.05% Tween 20). SET samples are applied and incubated on the plates for 150 s with shaking at 700 rpm followed by one wash. Antigen captured on a plate is detected with 250 ng/mL sulfotag-labeled streptavidin in PBSF by incubation on the plate for 3 min. The plates are washed three times with wash buffer and are then read on the MSD Sector Imager 2400 instrument using 1× Read Buffer T with surfactant. The percent free antigen is plotted as a function of titrated antibody in Prism and fit to a quadratic equation to extract the KD. To improve throughput, liquid handling robots are used throughout MSD-SET experiments, including for SET sample preparation.

[2] = target: T2, human PD-1 (soluble antigen of the MSD …); test: MSD solution equilibrium titration, monovalent KD
Protocol: as §2

[3] = target: T3, murine PD-1 (soluble antigen of the MSD assay) (mouse, UniProt Q02242 25-169, limits assumed); test: MSD solution equilibrium titration, monovalent KD
T3 construct: also called mouse PD-1
T3 sequence: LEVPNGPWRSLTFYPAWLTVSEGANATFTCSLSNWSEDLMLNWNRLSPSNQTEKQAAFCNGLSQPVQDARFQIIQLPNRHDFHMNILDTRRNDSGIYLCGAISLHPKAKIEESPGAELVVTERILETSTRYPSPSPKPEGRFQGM
Protocol: as §2

human PD-1_HIS = target: T4, human PD-1_HIS (human, UniProt Q15116 25-167, limits assumed); test: bio-layer interferometry (ForteBio), human PD-1_HIS in solution, IgG on sensor tip
T4 construct: not shown: His tag
T4 sequence (Q15116 25-167 limits assumed): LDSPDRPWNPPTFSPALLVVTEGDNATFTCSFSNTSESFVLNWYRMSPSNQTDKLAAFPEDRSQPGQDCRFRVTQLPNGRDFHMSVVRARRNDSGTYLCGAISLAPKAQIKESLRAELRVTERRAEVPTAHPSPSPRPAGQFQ
Protocol: Briefly, ForteBio affinity measurements were performed by loading IgGs online onto AHQ sensors. Sensors were equilibrated off-line in assay buffer for 30 min and then monitored on-line for 60 seconds for baseline establishment. Sensors with loaded IgGs were exposed to 100 nM antigen for 5 min, afterwards they were transferred to assay buffer for 5 min for off-rate measurement. Kinetics was analyzed using the 1:1 binding model.

cyno PD-1_Fc = cyno PD-1_Fc (cyno); test: bio-layer interferometry (ForteBio), Fab in solution, cyno PD-1_Fc on sensor tip
human PD-1_Fc = target: T5, human PD-1_Fc (human, UniProt Q15116 25-167, limits assumed); test: bio-layer interferometry (ForteBio), Fab in solution, human PD-1_Fc on sensor tip
T5 construct: not shown: Fc part
T5 sequence (Q15116 25-167 limits assumed): as above

murine PD-1_Fc = target: T6, murine PD-1_Fc (mouse, UniProt Q02242 25-167, limits assumed); test: bio-layer interferometry (ForteBio), Fab in solution, murine PD-1_Fc on sensor tip
T6 construct: not shown: Fc part
T6 sequence: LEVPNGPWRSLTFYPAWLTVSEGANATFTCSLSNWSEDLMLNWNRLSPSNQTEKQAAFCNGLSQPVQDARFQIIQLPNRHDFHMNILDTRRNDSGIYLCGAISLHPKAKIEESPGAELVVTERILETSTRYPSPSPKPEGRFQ

[4] = target: T7, human PD-1 on cells (CHO cells; T cells in the mixed lymphocyte reaction) (human, UniProt Q15116 25-288); test: cell-based or functional assay
T7 sequence (Q15116 25-288 limits assumed): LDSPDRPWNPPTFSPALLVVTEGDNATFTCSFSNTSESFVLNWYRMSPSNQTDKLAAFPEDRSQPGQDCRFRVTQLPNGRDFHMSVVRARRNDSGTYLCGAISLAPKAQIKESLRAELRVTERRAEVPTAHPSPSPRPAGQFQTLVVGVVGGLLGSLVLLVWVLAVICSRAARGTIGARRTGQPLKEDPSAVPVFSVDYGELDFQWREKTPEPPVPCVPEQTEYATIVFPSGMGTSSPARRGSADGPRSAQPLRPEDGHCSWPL

[5] = target: T7, human PD-1 on cells (CHO cells; T cells …); test: cell-based or functional assay; remark: listed apart in the source
[6] = target: T7, human PD-1 on cells (CHO cells; T cells …); test: flow cytometry on CHO cells with human PD-1 (n=1)
Protocol: as §1

[7] = target: T7, human PD-1 on cells (CHO cells; T cells …); test: flow cytometry, remaining PD-L2-FITC signal after 100 nM antibody; competitor PD-L2-FITC
Protocol: CHO cells 0.2×10⁶ are incubated with the experimental antibody (100 nM) for 30 min in PBS 1% BSA on ice. […] Cells are washed 3× and analyzed via flow cytometry. Flow cytometry is performed on an Accuri C6 system (BD Biosciences) and MFIs are calculated on the C6 software. EC50 s are calculated on Graphpad software.

[8] = target: T3, murine PD-1 (soluble antigen of the MSD …); test: MSD solution equilibrium titration, avid KD
Protocol: as §2

EC50 (murine PD-1 on CHO cells): 9.26 nM | Kd [1]: 0.035 nM | Kd [2]: 0.3 nM | Kd [3]: 2.3 nM | Kd (human PD-1_HIS): 1.9 nM
B1: Antibody D, IgG1 format expressed in yeast (antibody, V domains shown)
VH: QVQLVQSGAEVKKPGASVKVSCKASGYTFEKYYMHWVRQAPGQGLEWMGIINPDGGSTGYAQKFQGRVTMTRDTSTSTVYMELSSLRSEDTAVYYCAKEGVADGYGLVDVWGQGTMVTVSS
VL: EIVLTQSPATLSLSPGERATLSCRASQSVSSYLAWYQQKPGQAPRLLIYDASKRATGIPARFSGSGSGTDFTLTISSLEPEDFAVYYCDQRNNWPLTFGGGTKVEIK
notes: Tested in IgG1 format, expressed in yeast

Kd (cyno PD-1_Fc): 4.4 nM | Kd (human PD-1_Fc): 3.4 nM | Kd (murine PD-1_Fc): 7.8 nM
B2: Fab of Antibody D (Fab, V domains shown)
VH: B1 VH
VL: B1 VL
notes: Fab in solution in BLI; also called Antibody D (Fab in solution)

Kd (cyno PD-1_Fc): 2.4 nM | Kd (human PD-1_Fc): 2 nM | Kd (murine PD-1_Fc): 10 nM
B3: Fab of Antibody C (Fab, V domains shown)
VH: B1 VH with E30T, K31A, Y32Q, D54S, S57E
VL: B1 VL
notes: Fab in solution in BLI; also called Antibody C (Fab in solution)

Kd (cyno PD-1_Fc): 3.6 nM | Kd (human PD-1_Fc): 3 nM | Kd (murine PD-1_Fc): 6.1 nM
B4: Fab of Antibody F (Fab, V domains shown)
VH: B1 VH with E30S, K31A
VL: B1 VL
notes: Fab in solution in BLI; also called Antibody F (Fab in solution)

IL-2 in supernatant, 0.01 nM IgG [4]: 708 pg/mL | IL-2 in supernatant, 0.1 nM IgG [4]: 586 pg/mL | IL-2 in supernatant, 1 nM IgG [4]: 618 pg/mL | IL-2 in supernatant, 10 nM IgG [4]: 975 pg/mL | IL-2 in supernatant, 100 nM IgG [4]: 1410 pg/mL | IL-2 secretion fold change vs. IgG control, 0.01 nM IgG [4]: 1.37 fold | IL-2 secretion fold change vs. IgG control, 0.1 nM IgG [4]: 1.15 fold | IL-2 secretion fold change vs. IgG control, 1 nM IgG [4]: 1.23 fold | IL-2 secretion fold change vs. IgG control, 10 nM IgG [4]: 1.87 fold | IL-2 secretion fold change vs. IgG control, 100 nM IgG [4]: 2.28 fold | IFNg secretion fold change vs. IgG control, 0.01 nM IgG [5]: 1.49 fold | IFNg secretion fold change vs. IgG control, 0.1 nM IgG [5]: 1.49 fold | IFNg secretion fold change vs. IgG control, 1 nM IgG [5]: 1.11 fold | IFNg secretion fold change vs. IgG control, 10 nM IgG [5]: 1.37 fold | IFNg secretion fold change vs. IgG control, 100 nM IgG [5]: 1.52 fold | IFNγ in supernatant, 0.01 nM IgG [5]: 22100 pg/mL | IFNγ in supernatant, 0.1 nM IgG [5]: 16400 pg/mL | IFNγ in supernatant, 1 nM IgG [5]: 12900 pg/mL | IFNγ in supernatant, 10 nM IgG [5]: 18400 pg/mL | IFNγ in supernatant, 100 nM IgG [5]: 22600 pg/mL | EC50 (murine PD-1 on CHO cells): 11 nM | Kd [1]: 0.049 nM | EC50 [6]: 10.2 nM | Kd [2]: 4.9 nM | Kd [3]: 9.6 nM | Kd (human PD-1_HIS): 4.3 nM | MFI (PD-L2-FITC) [7]: 90900 MFI
B5: Antibody A, IgG1 format expressed in yeast (antibody, V domains shown)
VH: B1 VH with E30T, K31S, D54S, G59S, V119I
VL: B1 VL
notes: as for B1

EC50 (murine PD-1 on CHO cells): 5.86 nM | Kd [1]: 0.018 nM | Kd [8]: 0.44 nM | Kd [2]: 0.17 nM | Kd [3]: 1.2 nM | Kd (human PD-1_HIS): 1.6 nM
B6: Antibody F, IgG1 format expressed in yeast (antibody, V domains shown)
VH: B1 VH with E30S, K31A
VL: B1 VL
notes: as for B1

Kd (cyno PD-1_Fc): 3.3 nM | Kd (human PD-1_Fc): 2.7 nM | Kd (murine PD-1_Fc): 7.6 nM
B7: Fab of Antibody E (Fab, V domains shown)
VH: B1 VH with E30T, K31S, Y32N, D54S, G55E
VL: B1 VL
notes: Fab in solution in BLI; also called Antibody E (Fab in solution)

Kd (cyno PD-1_Fc): 3.7 nM | Kd (human PD-1_Fc): 2.7 nM | Kd (murine PD-1_Fc): 17 nM
B8: Fab of Antibody B (Fab, V domains shown)
VH: B1 VH with K31G, D54E, S57E, G59S, T76I, V79A, S85R, E89D
VL: B1 VL
notes: Fab in solution in BLI; also called Antibody B (Fab in solution)

IL-2 in supernatant, 0.01 nM IgG [4]: 519 pg/mL | IL-2 in supernatant, 0.1 nM IgG [4]: 587 pg/mL | IL-2 in supernatant, 1 nM IgG [4]: 914 pg/mL | IL-2 in supernatant, 10 nM IgG [4]: 1190 pg/mL | IL-2 in supernatant, 100 nM IgG [4]: 1620 pg/mL | IL-2 secretion fold change vs. IgG control, 0.01 nM IgG [4]: 1.01 fold | IL-2 secretion fold change vs. IgG control, 0.1 nM IgG [4]: 1.15 fold | IL-2 secretion fold change vs. IgG control, 1 nM IgG [4]: 1.83 fold | IL-2 secretion fold change vs. IgG control, 10 nM IgG [4]: 2.29 fold | IL-2 secretion fold change vs. IgG control, 100 nM IgG [4]: 2.62 fold | IFNg secretion fold change vs. IgG control, 0.01 nM IgG [5]: 0.97 fold | IFNg secretion fold change vs. IgG control, 0.1 nM IgG [5]: 1.5 fold | IFNg secretion fold change vs. IgG control, 1 nM IgG [5]: 1.82 fold | IFNg secretion fold change vs. IgG control, 10 nM IgG [5]: 1.79 fold | IFNg secretion fold change vs. IgG control, 100 nM IgG [5]: 1.84 fold | IFNγ in supernatant, 0.01 nM IgG [5]: 14400 pg/mL | IFNγ in supernatant, 0.1 nM IgG [5]: 16500 pg/mL | IFNγ in supernatant, 1 nM IgG [5]: 21100 pg/mL | IFNγ in supernatant, 10 nM IgG [5]: 24100 pg/mL | IFNγ in supernatant, 100 nM IgG [5]: 27400 pg/mL | EC50 (murine PD-1 on CHO cells): 2.88 nM | Kd [1]: 0.0093 nM | Kd [8]: 0.13 nM | EC50 [6]: 4.12 nM | Kd [2]: 0.12 nM | Kd [3]: 1.9 nM | Kd (human PD-1_HIS): 1 nM | MFI (PD-L2-FITC) [7]: 30100 MFI
B9: Antibody C, IgG1 format expressed in yeast (antibody, V domains shown)
VH: B1 VH with E30T, K31A, Y32Q, D54S, S57E
VL: B1 VL
notes: as for B1

Kd (cyno PD-1_Fc): 14 nM | Kd (human PD-1_Fc): 16 nM | Kd (murine PD-1_Fc): 33 nM
B10: Fab of Antibody A (Fab, V domains shown)
VH: B1 VH with E30T, K31S, D54S, G59S, V119I
VL: B1 VL
notes: Fab used in solution in the bio-layer interferometry columns 'Fab in solution'; also called Antibody A (Fab in solution)

EC50 (murine PD-1 on CHO cells): 6.13 nM | Kd [1]: 0.014 nM | Kd [8]: 0.38 nM | Kd [2]: 0.13 nM | Kd [3]: 2.7 nM | Kd (human PD-1_HIS): 1.4 nM
B11: Antibody B, IgG1 format expressed in yeast (antibody, V domains shown)
VH: B1 VH with K31G, D54E, S57E, G59S, T76I, V79A, S85R, E89D
VL: B1 VL
notes: as for B1
